The values below come from IntAct's records for PubMed 26188084.

B1: SCL-interrupting locus protein (Homo sapiens), Q15468 (parent)
chain: MEPIYPFARPQMNTRFPSSRMVPFHFPPSKCALWNPTPTGDFIYLHLSYYRNPKLVVTEKTIRLAYRHAKQNKKNSSCFLLGSLTADEDEEGVTLTVDRFDPGREVPECLEITPTASLPGDFLIPCKVHTQELCSREMIVHSVDDFSSALKALQCHICSKDSLDCGKLLSLRVHITSRESLDSVEFDLHWAAVTLANNFKCTPVKPIPIIPTALARNLSSNLNISQVQGTYKYGYLTMDETRKLLLLLESDPKVYSLPLVGIWLSGITHIYSPQVWACCLRYIFNSSVQERVFSESGNFIIVLYSMTHKEPEFYECFPCDGKIPDFRFQLLTSKETLHLFKNVEPPDKNPIRCELSAESQNAETEFFSKASKNFSIKRSSQKLSSGKMPIHDHDSGVEDEDFSPRPIPSPHPVSQKISKIQPSVPELSLVLDGNFIESNPLPTPLEMVNNENPPLINHLEHLKPLQPQLYDEKHSPEVEAGEPSLRGIPNQLNQDKPALLRHCKVRQPPAYKKGNPHTRNSIKPSSHNGPSHDIFEKLQTVSAGNVQNEEYPIRPSTLNSRQSSLAPQSQPHDFVFSPHNSGRPMELQIPTPPLPSYCSTNVCRCCQHHSHIQYSPLNSWQGANTVGSIQDVQSEALQKHSLFHPSGCPALYCNAFCSSSSPIALRPQGDMGSCSPHSNIEPSPVARPPSHMDLCNPQPCTVCMHTPKTESDNGMMGLSPDAYRFLTEQDRQLRLLQAQIQRLLEAQSLMPCSPKTTAVEDTVQAGRQMELVSVEAQSSPGLHMRKGVSIAVSTGASLFWNAAGEDQEPDSQMKQDDTKISSEDMNFSVDINNEVTSLPGSASSLKAVDIPSFEESNIAVEEEFNQPLSVSNSSLVVRKEPDVPVFFPSGQLAESVSMCLQTGPTGGASNNSETSEEPKIEHVMQPLLHQPSDNQKIYQDLLGQVNHLLNSSSKETEQPSTKAVIISHECTRTQNVYHTKKKTHHSRLVDKDCVLNATLKQLRSLGVKIDSPTKVKKNAHNVDHASVLACISPEAVISGLNCMSFANVGMSGLSPNGVDLSMEANAIALKYLNENQLSQLSVTRSNQNNCDPFSLLHINTDRSTVGLSLISPNNMSFATKKYMKRYGLLQSSDNSEDEEEPPDNADSKSEYLLNQNLRSIPEQLGGQKEPSKNDHEIINCSNCESVGTNADTPVLRNITNEVLQTKAKQQLTEKPAFLVKNLKPSPAVNLRTGKAEFTQHPEKENEGDITIFPESLQPSETLKQMNSMNSVGTFLDVKRLRQLPKLF
partner: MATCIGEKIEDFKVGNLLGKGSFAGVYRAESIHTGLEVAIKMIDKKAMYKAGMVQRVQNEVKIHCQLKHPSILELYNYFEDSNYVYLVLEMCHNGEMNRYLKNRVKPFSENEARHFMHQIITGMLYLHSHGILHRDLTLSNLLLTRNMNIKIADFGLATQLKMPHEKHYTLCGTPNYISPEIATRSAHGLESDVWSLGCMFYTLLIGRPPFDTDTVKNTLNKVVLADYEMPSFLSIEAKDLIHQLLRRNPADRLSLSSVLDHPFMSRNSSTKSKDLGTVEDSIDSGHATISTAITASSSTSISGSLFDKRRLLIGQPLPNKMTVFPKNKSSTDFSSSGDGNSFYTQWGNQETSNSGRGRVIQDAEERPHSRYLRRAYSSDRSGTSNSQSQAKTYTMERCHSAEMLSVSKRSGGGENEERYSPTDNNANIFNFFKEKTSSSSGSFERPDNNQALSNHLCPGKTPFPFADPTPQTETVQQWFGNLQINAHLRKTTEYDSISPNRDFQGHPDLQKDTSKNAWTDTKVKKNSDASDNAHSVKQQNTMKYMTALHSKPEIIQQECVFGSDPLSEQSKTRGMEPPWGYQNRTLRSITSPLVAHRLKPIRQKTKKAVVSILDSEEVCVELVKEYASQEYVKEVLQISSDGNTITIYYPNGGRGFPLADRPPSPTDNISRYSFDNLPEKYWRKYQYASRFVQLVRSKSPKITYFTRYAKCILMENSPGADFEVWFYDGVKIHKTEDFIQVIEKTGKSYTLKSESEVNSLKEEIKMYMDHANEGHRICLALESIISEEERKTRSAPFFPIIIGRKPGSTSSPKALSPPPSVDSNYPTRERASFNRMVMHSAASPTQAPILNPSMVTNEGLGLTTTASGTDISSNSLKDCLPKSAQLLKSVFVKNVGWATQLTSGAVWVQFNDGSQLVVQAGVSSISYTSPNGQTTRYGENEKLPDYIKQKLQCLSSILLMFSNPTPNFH
B2: Serine/threonine-protein kinase PLK4 (Homo sapiens), O00444 (parent)
chain: B1 partner
partner: B1 chain

In one experiment the parent is B1. Conditions: with plk4_human PLK4, O00444.
L733Y;L743Y: the “effect of a mutation on the interaction” value is reported as “with no effect”. Still for that read-out and setting: then Q737K;Q739E, with “decreasing interaction strength”; and L733D;I740K;L743D, with “with no effect”. For the variant L733E;I740E;L743E, the “effect of a mutation on the interaction” value is reported as “with no effect”. In the case of L733D;L736E;L743D, the “effect of a mutation on the interaction” value is reported as “with no effect”. On the same count and under the same terms, under L733D;L743D stands “decreasing interaction strength”. Take L733D;L736E;I740K;L743D: the “effect of a mutation on the interaction” value is “with no effect”.

The variants in the next experiment derive from B2. The following applies: with stil_human STIL.
As to S285A;T289A, the “effect of a mutation on the interaction” value was “with no effect”.
